These results are taken from US20080220446A1, “Method for Detecting and/or Removing Protein and/or Peptide Comprising a Cross-Beta Structure From an Aqueous Solution Comprising a Protein” (priority 2005, published 2008).

In this experiment the target is endostatin (EntreMed, Inc.) (UniProt P39060). As to the kind of experiment: SPR (Biacore), Fn F4-5-His6 immobilized, endostatin at 0-800 nM, maximum RU against concentration.
endostatin (EntreMed, Inc.), sequence (P39060 1572-1754): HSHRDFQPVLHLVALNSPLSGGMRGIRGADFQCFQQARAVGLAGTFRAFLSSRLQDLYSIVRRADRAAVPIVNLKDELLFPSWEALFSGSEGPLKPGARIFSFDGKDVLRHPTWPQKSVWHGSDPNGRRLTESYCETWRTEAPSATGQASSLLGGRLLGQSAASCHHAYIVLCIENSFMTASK

Substance “Fn F4-5-His6 (fibronectin type I domains 4-5, expressed in S. cerevisiae) (from UniProt P02751 182-276)” gave a concentration of ligand that results in half maximum binding of 800 nM.
